Source: paper PMC7469494 (Autophagy, 2019)
Changes are numbered by the printed parent chain.

What was measured:
Vac8[40–515]^N60R,N62R = biological target: T1, Vac8[40–515]^N60R,N62R (S. cerevisiae, UniProt P39968 40-515, N60R | N62R); test: SEC
T1 sequence (looked up): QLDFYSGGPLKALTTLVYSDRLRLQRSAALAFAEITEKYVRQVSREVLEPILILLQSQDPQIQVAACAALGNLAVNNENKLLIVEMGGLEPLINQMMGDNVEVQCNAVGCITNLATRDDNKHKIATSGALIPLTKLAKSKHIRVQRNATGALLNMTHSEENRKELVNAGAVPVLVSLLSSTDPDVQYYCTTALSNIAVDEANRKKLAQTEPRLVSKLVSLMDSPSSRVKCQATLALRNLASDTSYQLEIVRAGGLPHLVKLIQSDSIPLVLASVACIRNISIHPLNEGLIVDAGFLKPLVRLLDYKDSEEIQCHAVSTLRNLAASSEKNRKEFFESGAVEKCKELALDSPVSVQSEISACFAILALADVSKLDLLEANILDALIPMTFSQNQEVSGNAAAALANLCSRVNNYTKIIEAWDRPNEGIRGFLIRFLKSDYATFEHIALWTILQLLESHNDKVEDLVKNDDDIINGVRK

Vac8[40–515]^L55R = biological target: T2, Vac8[40–515]^L55R (S. cerevisiae, UniProt P39968 40-515, L55R); test: SEC
T2 sequence (looked up): T1 sequence (looked up) with L16R, R21N, R23N

Vac8[40–515]^N62R = biological target: T3, Vac8[40–515]^N62R (S. cerevisiae, UniProt P39968 40-515, N62R); test: SEC
T3 sequence (looked up): T1 sequence (looked up) with R21N

Vac8[40–515]^A51R = biological target: T4, Vac8[40–515]^A51R (S. cerevisiae, UniProt P39968 40-515, A51R); test: SEC
T4 sequence (looked up): T1 sequence (looked up) with A12R, R21N, R23N

[1] = biological target: T5, tVac8 (Vac8 construct comprising residues 10–515) (S. cerevisiae, UniProt P39968 10-515); test: AUC
T5 sequence (looked up): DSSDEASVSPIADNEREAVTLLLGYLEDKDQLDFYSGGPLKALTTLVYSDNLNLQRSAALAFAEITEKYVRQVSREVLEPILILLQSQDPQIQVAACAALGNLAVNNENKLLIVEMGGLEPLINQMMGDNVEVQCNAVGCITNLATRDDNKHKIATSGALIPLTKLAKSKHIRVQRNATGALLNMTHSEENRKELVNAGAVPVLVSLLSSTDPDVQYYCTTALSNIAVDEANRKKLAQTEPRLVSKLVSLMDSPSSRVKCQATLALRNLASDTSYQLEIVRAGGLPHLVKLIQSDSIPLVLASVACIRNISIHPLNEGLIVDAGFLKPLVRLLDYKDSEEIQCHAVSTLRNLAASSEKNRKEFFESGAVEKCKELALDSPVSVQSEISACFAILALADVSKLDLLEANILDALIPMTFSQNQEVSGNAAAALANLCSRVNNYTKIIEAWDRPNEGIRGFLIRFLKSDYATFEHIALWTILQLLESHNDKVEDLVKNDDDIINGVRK

Measured: binding result

B1: tAtg13 (Atg13 construct comprising residues 567–695) (domain or fragment, S. cerevisiae, UniProt Q06628 567-695, looked up)
chain: GGNSSTSALNSRRNSLDKSSNKQGMSGLPPIFGGESTSYHHDNKIQKYNQLGVEEDDDDENDRLLNQMGNSATKFKSSISPRSIDSISSSFIKSRIPIRQPYHYSQPTTAPFQAQAKFHKPANKLIDNG
binds: Vac8[40–515]^N60R,N62R | Vac8[40–515]^L55R | Vac8[40–515]^N62R | Vac8[40–515]^A51R | [1]
